Measurements published in article PMC2630241.
“And” between values parts separate entries of the source, which are not always exact repeats. Equal values may be shown once.

Tests used:
[1] = biological target: Selenomethionine substituted TRPM7cc (rat) (UniProt Q925B3); assay: crystal structure
[2] = biological target: TRPM7 coiled-coil assembly domain (TRPM7cc), rat TRPM7 residues 1230-1282 (rat) (UniProt Q925B3); assay: crystal structure
[3] = biological target: TRPM7 coiled-coil assembly domain (TRPM7cc), rat TRPM7 residues 1230-1282 (rat) (UniProt Q925B3); assay: SEC
[4] = biological target: TRPM7 coiled-coil assembly domain (TRPM7cc), rat TRPM7 residues 1230-1282 (rat) (UniProt Q925B3); assay: AUC

Substance | stoichiometry N [1] | stoichiometry N [2] | stoichiometry N [3] | stoichiometry N [4]
Selenomethionine substituted TRPM7cc (from UniProt Q925B3 1230-1282) (domain or fragment) | 4 | – | – | –
TRPM7 coiled-coil assembly domain (TRPM7cc), rat TRPM7 residues 1230-1282 (from UniProt Q925B3 1230-1282) (domain or fragment) | – | 4 | 4 | 4.1 and 3.7
